The source of these data is patent publication US20220057415A1, “METHOD FOR DETECTING ALLERGIC DISEASES” (The University of Tokyo, priority 2018, published 2022).

The test system of experiment [1] is ovalbumin-specific IgE in serum. The experiment is described as follows: Ovalbumin-specific IgE level in serum (ELISA). Format: in vivo, BALB/C mice. As to conditions: OVA-sensitized mice (two i.p. sensitizations, not stimulated with OVA); not detected in unsensitized group; mean±SD. Here is the method:
(§1) To 23 BALB/C mice (female, 5 weeks old) (CLEA Japan, Inc., the same applies hereinafter), 50 μg of ovalbumin (manufactured by Sigma, sometimes abbreviated as “OVA” herein) dissolved and diluted with physiological saline (manufactured by Otsuka Pharmaceutical Co., Ltd.) and 1 mg of aluminum potassium sulfate (manufactured by Sigma-Aldrich Co. LLC.) were intraperitoneally administered simultaneously, and, after two weeks, 50 μg of OVA was intraperitoneally administered again for sensitization. Two weeks after the second sensitization, OVA (400 μg/10 μL) was transnasally administered once daily for 5 days (5 times, in total) or 10 days (10 times, in total) for stimulation, thereby preparing allergic rhinitis (sometimes abbreviated as “AR” herein) model mice. […]
Antigen sensitization is known to increase the antigen-specific IgE value in serum. To confirm the ovalbumin sensitization of the allergic rhinitis model mice prepared in Example 1 (1), the ovalbumin-specific IgE level in serum was measured. […] The freeze-preserved serum was diluted 25 times, and then the IgE level was measured using Anti-Ovalbumin IgE (mouse) ELISA Kit (manufactured by Cayman Chemical Company) according to the instructions attached to the kit.

The test system of experiment [2] is BALB/C mice. The experiment is described as follows: Evaluation of sneezing symptom. The class given is in vivo. The procedure:
as §1
For the AR model mice (22 mice) and solvent-administered group (10 mice) prepared in Example 1, the numbers of sneezes for a period of 10 minutes from 1 minute to 11 minutes after each of the first to tenth administrations of OVA or the solvent were counted. For the upper respiratory inflammation model mice (9 mice) and single-time solvent-administered group (6 mice) prepared in Example 1, the numbers of sneezes were counted hourly after the administration of LPS or the solvent (until 10 hours later).

Experiment [3] deals with BALB/C mice. The experiment is described as follows: Measurement of nasal cavity volume by computed tomography. The class given is in vivo. The procedure: To 23 BALB/C mice (female, 5 weeks old) (CLEA Japan, Inc., the same applies hereinafter), 50 μg of ovalbumin (manufactured by Sigma, sometimes abbreviated as “OVA” herein) dissolved and diluted with physiological saline (manufactured by Otsuka Pharmaceutical Co., Ltd.) and 1 mg of aluminum potassium sulfate (manufactured by Sigma-Aldrich Co. LLC.) were intraperitoneally administered simultaneously, and, after two weeks, 50 μg of OVA was intraperitoneally administered again for sensitization. […]
The nasal cavity volume of the AR model mice prepared in Example 1 was measured by computed tomography before the administration of OVA (6 mice), 24 hours after the fifth administration of OVA (6 mice), and 24 hours after the tenth administration of OVA (6 mice). As a control, the nasal cavity volume of the solvent-administered group prepared in Example 1 was measured in the same manner as above before the administration of the solvent (6 mice), 24 hours after the fifth administration of the solvent (6 mice), and 24 hours after the tenth administration of the solvent (6 mice). […] From the captured image, regions having a CT value of −900 to −300 HU (Hounsfield unit) were decided as the nasal cavities, and their volume was measured.

Experiment [4] has as its system BALB/C mice. In words: Histopathological count of immunocytes infiltrated into nasal turbinates. The class given is in vivo. Here is the method:
Specifically, the maxilla was excised from the mice and immediately immersed in 4% paraformaldehyde at 4° C. for 5 days. Then, it was immersed in EDTA every day and decalcified at 4° C. for 10 days. Next, the bone covering the orbit was excised with a razor, dehydrated and cleared, and then embedded in paraffin to prepare continuous section specimens having a width of 4 μm. Hematoxylin-eosin staining (HE staining), chloroacetate-esterase staining (CAE staining), toluidine blue staining (TB staining) or May-Grünwald Giemsa staining (MG staining) was performed according to a conventional method for encapsulation. Specific staining procedures are as will be described below. The stained nasal cavity tissue was observed under an optical microscope (ACT-10, manufactured by Nikon Corporation), and imaged using a digital microscope camera (OPTIPHOT-2, manufactured by Nikon Corporation). The number of immunocytes (connective tissue type mast cells, mucosal type mast cells, eosinophils and neutrophils) in the nasal turbinates (sites where inflammatory cells infiltrate when rhinitis occurs and where many capillaries gather) was counted within 16 to 24 randomly selected areas (magnification: ×400) per section. CAE staining is a staining method in which mast cell-specific esterase is stained red using naphthol AS-D chloroacetate as a substrate. The continuous section specimens prepared in the above item (1) were deparaffinized and used for staining. A 4% sodium nitrite solution and a new fuchsin solution were mixed at a ratio of 1:1, and then this solution and a naphthol solution were mixed at a ratio of 1:9. This solution and phosphate buffer (0.2M NaH2PO4, 0.2M Na2HPO4, pH 7.6) were mixed at a ratio of 1:20, and the sections were immersed for 10 minutes. The sections were washed with distilled water and then counterstained with a hematoxylin solution. The total number of the mast cells (connective tissue type mast cells and mucosal type mast cells) present in the connective tissue and mucosal tissue within 1 mm^2 was counted to calculate the mean value and standard deviation. TB staining stains acidic mucous polysaccharides. Acidic mucous polysaccharides are present in the connective tissue type mast cells and absent in the mucosal type mast cells. The continuous section specimens prepared in the above item (1) were deparaffinized and then immersed in a 0.05% toluidine blue solution (pH: 4.1) for 10 minutes. Then, they were decolorized with a 90% alcohol solution and then encapsulated. CAE staining stains both the connective tissue type mast cells and the mucosal type mast cells, whereas TB staining stains only the connective tissue type mast cells. CAE staining and TB staining were performed on different sections, and cells positive for CAE staining and positive for TB staining were decided as connective tissue type mast cells. Also, cells positive for CAE staining and negative for TB staining were decided as mucosal type mast cells. The total number of the connective tissue mast cells or mucosal type mast cells present in the connective tissue and mucosal tissue within 1 mm^2 was counted to calculate the mean value and standard deviation. May-Grünwald Giemsa staining stains eosinophil-specific eosinophilic granules red. The continuous section specimens prepared in the above item (1) were deparaffinized and then immersed in a May-Grünwald staining solution for 6 minutes. Then, the sections were washed with 1/15 M-phosphate buffer (×10) (0.2M NaH2PO4, 0.2M Na2HPO4, pH 6.4 to 6.8). Thereafter, the sections were immersed for 3 minutes in a solution obtained by mixing a Giemsa staining solution and distilled water at a ratio of 1:20. HE staining and MG staining were performed on different sections, and cells confirmed to have a multilobed nucleus by HE staining and positive for MG staining were decided as eosinophils. Also, cells have a multilobed nucleus by HE staining and negative for MG staining were decided as neutrophils. […]

The mark [5] stands for this setting: 10-time OVA-administered group vs 10-time solvent-administered group.

B1: OVA: ovalbumin (manufactured by Sigma), antigen used for sensitization and stimulation of the allergy models (protein, UniProt P01012 2-386, looked up)
Ovalbumin: GSIGAASMEFCFDVFKELKVHHANENIFYCPIAIMSALAMVYLGAKDSTRTQINKVVRFDKLPGFGDSIEAQCGTSVNVHSSLRDILNQITKPNDVYSFSLASRLYAEERYPILPEYLQCVKELYRGGLEPINFQTAADQARELINSWVESQTNGIIRNVLQPSSVDSQTAMVLVNAIVFKGLWEKAFKDEDTQAMPFRVTEQESKPVQMMYQIGLFRVASMASEKMKILELPFASGTMSMLVLLPDEVSGLEQLESIINFEKLTEWTSSNVMEERKIKVYLPRMKMEEKYNLTSVLMAMGITDVFSSSANLSGISSAESLKISQAVHAAHAEINEAGREVVGSAEAGVDAASVSEEFRADHPFLFCIKHIATNAVLFFGRCVSP
For the molecule B1, in experiment [1], the “serum ovalbumin-specific IgE” value amounted to 23 ± 6.29 ng/mL. Moreover, the frequency of sneezing entry with BALB/C mice [2] (allergic rhinitis model mice, from the first transnasal administration of OVA) was “observed to increase”. Moreover, in the experiment with BALB/C mice [2] (fifth administration of OVA, compared with solvent-administered group, maintained until tenth administration), the “number of sneezes for 10 minutes after administration” value is on record as “significantly increased”. In addition, the nasal cavity volume entry is listed as “decreased” in the experiment on BALB/C mice [3] (5-time OVA-administered group, 24 hours after fifth administration) and “significantly decreased” in the experiment with BALB/C mice [3] (10-time OVA-administered group, compared with before the administration of OVA). Also, the “number of eosinophils infiltrated into the nasal turbinates” value in the experiment on BALB/C mice [4] (5-time OVA-administered group vs 10-time solvent-administered group) and with BALB/C mice [4] (setting [5]) was “significant increase” throughout. Moreover, the “number of infiltrated eosinophils” value in the experiment on BALB/C mice [4] (5-time OVA-administered group vs LPS-administered group) and with BALB/C mice [4] (10-time OVA-administered group vs 5-time OVA-administered group) was “significantly increased” in each case. The “number of mucosal type mast cells infiltrated into the nasal turbinates” value in the experiment with BALB/C mice [4] (5-time OVA-administered group, solvent-administered groups and LPS-administered group compared) was “no significant difference”; with BALB/C mice [4] (setting [5]), “significant increase”. For the same molecule, the “number of neutrophils infiltrated into the nasal turbinate” value with BALB/C mice [4] (OVA-administered groups (5 and 10 times) and solvent-administered groups) is reported as “no significant difference”. Also, in the experiment with BALB/C mice [4] (OVA-administered groups (5 and 10 times), solvent-administered groups and LPS-administered group compared), the “number of connective tissue type mast cells infiltrated into the nasal turbinates” value is given as “no significant difference”.
